Results on 15 sequences are retold here after a protein production outcome set (Wang et al. 2014).

The series is described as follows: label from the status in PepcDB records.
For “MLAYQGLFQNGLMQVSPSYFSQTYLLGDVNYQTVGLDDKGAIVEKYSDLINSLDDKTNFQLTIFNQKVNLEKFRKSILYPLQEDGFDTYRDELNRMMDANLEAGENNFSAVKFLSFGKSDQTPKLAFRSLSQIGEYFKSGFSEIDVSLGLLGGEERVNVLADMLRGENHLPFSYKDLTLSGQSTKHFIAPTYLSFKHKNHIELDDRLLQIVYVRDYGMELGDKFIRDLMQSDLEVMISLHAKGSTKSETMTKLRTKKTLMESQKIGEQQKMARTGIYLEKVGHVLENNIDEAEALLQTMTQTGDKLFDTVFLIGVLADTEDQLKQSLDIIKQVAGSNDMIIDNLTYMQEAAFNSLLPFGKNYLEGVSRSLLTSNIAVNAPWTSVDIHDKGGKFYGINQISSNIISIDRGKLNTPSGLILGTSGAGKGMATKHEIISTKLKEADSDTEIIIVDPENEYSIIGQAFGGESIDIAPDSTTFLNVLELSDENMDEDPVKVKSEFLLSWIGKLLDRKMDGREKSLIDRVTRLTYKHFDTPSLVEWVFVLSQQPEQEAKDLALDMELYVEGSLDIFSHRTNIKTDSHFLIYNVKKLGDELKQIALMVIFDQIWNRVVKNQKLGKKTWIYFDEMQLLLLDKYASDFFFKLWSRVRKYGAIPTGITQNVETLLLDANGRRIIANSEFMILLKQAKSDREELVHMLGLSKELEKYLVNPEKGAGLIKAGSTVVPFKNKIPQHTKLFDIMSTDPEKMRTLEHHHHHH”, the protein production result is listed as “failed”.

Turning to “MMQIDSIEIGGKVYQFFKSDLGNAPLLFIKGSKGYAMCGYLNMETSNKVGDIAVRVMGVKTLDDMLSAKVVEASQEAQKVGINPGDVLRNVIDKL”, the protein production result was “not failed”. As for “MFYTIEELVQQADRDYQGNIAELMIATETELSGRDRSEILELMTRNLEVMKDSVQTGLSPEKSPTGLTGGDAAKLDAYIKRGKTLADSAVLGAARNAMAVNESNAKMGLVCATPTAGSAGCLPAVLTVAIEKLGLNESQQLDFLFTAGAFGLVIANKASISGAEGGCQAEVGSASAMAAAAITMAAGGTPFQASQAICFVLKNMLGLICDPVAGLVEVPCVKRNAMGASFALVAADMALAGITSAIPVDQVVDAMYQVGSAMPTAFRETAEGGLAATPKGKALAKEIFG”, the protein production entry was “not failed”.

Consider “YSIALIIPSLFEKACAHFLPSFQQALNKAGYQLLLGYSDYSIEQEEKLLSTFLESRPAGVVLFGSEHSQRTHQLLEASNTPVLEIAELSSKASYLNIGVDHFEVGKACTRHLIEQGFKNVGFIGARGNHSTLQRQLHGWQSAMIENYLTPDHFLTTHEAPSSQLGAEGLAKLLLRDSSLNALVCSHEEIAIGALFECHRRVLKVPTDIAIICLEGSSMGEHAYPSLTSAEFDYERMGTKAAEKLLHAIKGEPEERPTSMGFKLKRRASTAIN”, for which the protein production result is on record as “not failed”. In the case of “MPFCPEEFYCRITQNIESLNNIAKIQHAANTDYLTDLANRRAFFRSAESRIKEYINKKVPYCLAMIDVDFFKKVNDTYGHDSGDQVLKVIALYMRKHFGAGLTARLGGEEFAVLLHGLDADYLHNKLDDFRREIAVSSIPAGDTSISITLSLGVVFDSEDELSKQMNEADNALYAAKENGRNQIVVFGAELDDLEHHHHHH”, the protein production entry was “failed”. As to “MPQPTVLLLARADLSPVGTEFTTGPIDAHDPFDSGRRTAFVDEQGIAAGIVEFGTALSVEAYPYTEMLVMHRGSVTLTSGTDSVTLSTGESAVIGRGTQVRIDAQPESLWAFCASTQASGPDKSGITALDRLALLTPSSPPDPSIMISPLPQCRSNNLFEDTASTLRIGVWDSTPYERISRPHKIHELMNLIEGRVVLSLENGSSLTVNTGDTVFVAQGAPCKWTSTGYVRKFYAVT”, the protein production entry was “not failed”. Turning to “RDKYYLITHGSQDPYWTSLFQGAKKAAEELKVDLQILAPPGANDVPKQVQFIESALATYPSGIATTIPSDTAFSKSLQRANKLNIPVIAVDTRPKDKTKNPYLVFLGSDNLLAGKKLGEKALELTPSAKRALVLNPQPGHIGLEKRAYGIKTILQDKGIFFEELDVGTDPNQVQSRVKSYFKIHPETNIIFCLTSQALDPLGQMLLHPDRYDFNYQPQVYSFDKTPNTVSLIHKKLVNYVMDQQPFLMGYLSITQLVLMNRYQLNPVNINTAM”, the protein production result is “not failed”. Take “SSQWHHPRSGWGRRRDFSGRSSAKKKGGNHIPERWKDYLPVGQRMPGTRFIAFKVPLQKSFEKKLAPEECFSPLDLFNKIREQNEELGLIIDLTYTQRYYKPEDLPETVPYLKIFTVGHQVPDDETIFKFKHAVNGFLKENKDNDKLIGVHCTHGLNRTGYLICIYLIDVEGVRPDDAIELFNRCRGHCLERQNYIEDLQNGPIRKNWNSSVPRSSDFEDSAHLMQPVHNKPVKQGPRYNLHQIQGHSAPRHFHTQTQSLQQSVRKFSENPHVYQRHHLPPPGPPGEDYSHRRYSWNVKPNASRAAQDRRRWYPYNYSRLSYPACWEWTQ”: the protein production entry is given as “not failed”.

As for “MDKMTSSKHYKESMTLLFEGSLRAIPFNIILATLLALDLVYSDVPALIIGAWFFGIVFISLVRSYFCWKIIKRGVEKNRIQATLIEFFLLTFVTGSIWGACYFITLPYVNDLHEFIIILVFGGMCAGAIASLSIYLPAYYAYVFPMLLPVIVYNYALLDVDRTMLATMFLIFIAMLIISAKINHRLLNENFRLFNEKELLINELKVMSITDSLSGLYNRRYFDNIFPQEFNRARRNQYFLSLVSIDIDNFKLINDNLGHPFGDKVLISIADLLKKIFRRSNDILFRLGGDEFAIIIANQPIKETISICETIKNPFKTENLNHTYDSNEQLFMSHVTLSIGIVYIHFESSASIEHAITAADKALYQAKKKGKNQIVVKKLL”, the protein production entry is “failed”. For the sequence “MSINTKENIDAIFEKLESFLKSKTVIGEPIKIGETTIIPFIDITFGLGTGGGGGKDEKGNDGTGSGAGAGAKISATAVLVIKGEQVELLPIKKAGGLEKLLDMVPELEHHHHHH”, the protein production result is listed as “not failed”. For “MIFSQRIYFIILFHVLLILVTAGTGLWLVVSHTGYIIGGILLLCSLFQIGALTRQLNTFNRKIRLFFDAVQDKDNMLYFPEANVGKEQAQLNRSLNRLNDLLARTKGESHKQEHFYQSLLEEVPSGVLAWDDSGRIIIANSAAFSLLKCNRLYTETQLAQLLNATGIRKSLSISEKKMILDGETITILSIKDIGDELSDKENESWSKLTHVLTHEIMNTIAPILSLSQTLSERPDINEKSARGLRIIQAQSERLMEFTESFRHLSYLPHPEKRRFALTEMLRNLEELLQSDFRERGIRFMLQCVPDPIETDGDPNQLSQVFLNLLKNAMQALEGQADGRIILRVRRADRLQVEIEDNGPGIPEEIREQIFIPFFTTKTEGSGIGLSLCKQIIRQHDGHLSIRESRPGQTIFSLDLP” the value was “failed”. For “PHSMEPQVTLNVTFKNEIQSFLVSDPENTTWADIEAMVKVSFDLNTIQIKYLDEENEEVSINSQGEYEEALKMAVKQGNQLQMQVHEG” the value was “not failed”; for “MDHKKVAERVIKDVGRDNIIAGAHCATRLRLVLKDDSKVDQKALDNDPDVKGTFKTNGQYQVIIGPGDVNDVYDEFIKITGLKELSTDDLKKVAAEGQKKNPIMDFIKLLSDIFVPIIPALVAGGLLMALNNFLTSPGLFGPKSVVQMAPNVAGISSMIQVMSAAPFIFMPILVGMSAAKRFGANQFLGATIGMIMTTPGLGGATKFWDIFGLHVAQTNYQYQVIPVLVAVWVLSIFEKYFHKHLPSAVDFTFTPLLSIMITGFLTFTIIGPVFKGVSDAITNAIVWLYDTTGAFGMGVFGLSYSAIVTTGLHQSFPAVETQLLAAFAKNPASSGDFIFVTACMANVAQGAATFAVYFLTKNKKMKGLASSSGVSALLGITEPALFGVNLKYKFPFFCALIGSGVAAAFAGLMHVTAAALGSAGFLGFLSIYPRTIPMWVVSVAISFAVSFILTYVYGKSHLKEEVAEQDVPVNDATDYAEETQKAEKIGKEQLALKDEIIYSPVDGTPESLTKVNDQVFSAKLMGDGAAVIPSDGTIYAPVTGTVTIAYETKHAYGIKSDDGAEVLIHIGLDTVNLKGEHFESFVKQGQRVEKGDKLGSVDLDAVKKAGYDTTVMVVITNTANYANVQRITDAGDKHGDKLIAVTAHE”, “failed”.

For “KSHSRTLTPTPDGKTMLRPVLRLTSAMTREVATDHKAFYVLFTWDQEAQIYELVAQTVSERKNWCALITETAGSLKV”, the protein production entry is “failed”. For “LSHGDFELAVPGGPVAAYYAAPAGREQLPIVLVVQEIFGLHEHIKDVCRRLAHDGYLAVSVNLYQRQGDASRYDNIPGLVAELVSKVPDEQVHADLDASLAWAAAHGGDGARVGVTGFCWGGRTTWMYAARNPAVKAGVAWYGRLSSGHGPLIKQVPLDVAGSLHAPVLGLYGGKDESIPLDDVRAMEARLQQGGAPAQASRIVVYPQAGHAFLADYRPSYRAADAQDGWRRMLDWFALYL” the value was “failed”.
